The target of test [1] is T1, EGF receptor sites on A431 human carcinoma cells (Homo sapiens, UniProt P00533).
T1 construct: Human epidermoid A431 cells have in excess of 10⁶ EGF receptors per cell; endogenous in cells; host or cells: A431 human epidermoid carcinoma cells (formalin-fixed in A1)
As to the kind of experiment: 125I-EGF radioreceptor (binding competition) assay on formalin-fixed A431 cells. How it is done:
Purified EGF was labeled with Na¹²⁵I by a modification of the chloramine-T method as described in DeLarco et al. (1978) Proc. Natl. Acad. Sci. USA 75, pp. 4001-4005. The ¹²⁵I-EGF binding assay was performed on subconfluent monolayers of formalin-fixed A431 human carcinoma cells as previously described (in DeLarco et al. (1980) J. of Biol. Chem. 255, pp. 3685-3690). The fixed cells were washed twice with 0.5 ml of binding buffer (Dulbecco's modified Eagle's medium containing 1 mg/ml of bovine serum albumin and 50 mM 2-[bis(2-hydroxyethyl)amino]ethanesulfonic acid, pH 6.8). Competitions were initiated by the addition of 0.2 ml of binding buffer containing 0.4 ng of ¹²⁵I-EGF with or without potential inhibitor. After incubation for 1 h at 22°C, the specifically bound ¹²⁵I-EGF was determined. The TGF content was expressed by its degree of inhibition of the binding of ¹²⁵I-EGF to the EGF receptor. One EGF-competing activity unit is defined as the amount of protein that inhibits the binding of ¹²⁵I-EGF to its receptor by 50%.
TGF was quantitated in a radioreceptor assay based on receptor crossreactivity with mouse submaxillary gland epidermal growth factor (mEGF). […]

The test system of the next test is NRK cells. As to the kind of experiment: Soft agar transforming assay with fetal bovine serum and TGF-beta. The format is cell-based, rat. Conditions: in the absence of TGF-beta. From the text:
Synthetic rTGF prepared in accordance with this Example was compared with natural rTGF in three assays for biological properties of the putative transforming growth factor.

Test [2] concerns the target T2, tyrosine-specific protein kinase (Homo sapiens, UniProt P00533).
T2 construct: endogenous in cells; host or cells: human tumor cell membranes (said in the general description, not in the assay sentence)
As to the kind of experiment: Stimulation of tyrosine-specific protein kinase (phosphorylation of synthetic angiotensinyl peptide substrate). The class given is biochemical. From the text:
A consequence of TGF or EGF binding to the EGF membrane receptors is the stimulation of phosphorylation of tyrosine residues of synthetic peptides or endogenous substrates (Pike et al. (1982) J. Biol. Chem. 257, pp. 14628-14631).

The mark [3] stands for this setting: after oxidation and regeneration, prior to purification.

The source of these data is patent EP0132021B1, “TGF polypeptides, antigenic oligopeptides derived therefrom and antibodies produced therefrom” (Todaro, George Joseph, priority 1983, dated 1985).

As to “synthetic rTGF: rat TGF made by stepwise solid-phase chemical synthesis, oxidized and purified to homogeneity”, the IC50 in test [1] (A431 human carcinoma cells, read-out: concentration required for 50% inhibition of 125I-EGF binding) came out at 4.1 nM. In the test with NRK cells, the “transformation of NRK cells in culture” value was “does not produce such an effect”. In addition, in test [2] (read-out: half maximal activity, stimulation of phosphorylation of the synthetic angiotensinyl peptide substrate), the EC50 amounted to 0.3 nM.
On to “regenerated, crude rTGF-I: crude synthetic rTGF oxidized and regenerated by the mixed disulfide method, prior to any purification”, for which the “EGF-radioreceptor activity when compared to the natural rTGF-I” value in test [1] (setting [3]) is listed as 40-50%. Besides, in test [2] (setting [3]), the “tyrosine-specific protein kinase activity when compared to the natural rTGF-I” value was 40-50%.
